# Positions count from the first letter of the chain named.
# B1: parS24 Cy3 (dsDNA)
# DNA 1: AGGGTGTTCCACGTGAAACAGGGA
# DNA 2: TCCCTGTTTCACGTGGAACACCCT
# B2: parS55 (dsDNA)
# DNA 1: CTGAATCAGCAGTTGAATCAGAATGTTCCACGTGAAACAAAGAAAAAAGAACCTG
# DNA 2: CAGGTTCTTTTTTCTTTGTTTCACGTGGAACATTCTGATTCAACTGCTGATTCAG
# Experiments:
# [1] = target: T1, HpSoj K199E (Helicobacter pylori 26695, UniProt O25759 1-264, K199E); assay: fluorescence polarization
# T1 sequence: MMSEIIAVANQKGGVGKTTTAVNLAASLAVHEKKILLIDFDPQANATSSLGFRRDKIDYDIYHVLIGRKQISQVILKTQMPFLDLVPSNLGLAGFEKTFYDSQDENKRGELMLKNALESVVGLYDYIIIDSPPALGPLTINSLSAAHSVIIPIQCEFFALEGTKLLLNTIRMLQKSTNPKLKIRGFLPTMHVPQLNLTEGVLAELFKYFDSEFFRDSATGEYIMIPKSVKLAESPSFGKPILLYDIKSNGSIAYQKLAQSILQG
# [2] = target: T2, HpSoj K230E (Helicobacter pylori 26695, UniProt O25759 1-264, K230E); assay: fluorescence polarization
# T2 sequence: T1 sequence with E199K, K230E
# [3] = target: T3, HpSoj K199/227/230/247E (Helicobacter pylori 26695, UniProt O25759 1-264, K199E;K227E;K230E;K247E); assay: fluorescence polarization
# T3 sequence: T1 sequence with K227E, K230E, K247E
# [4] = target: T4, HpSoj K199/230E (Helicobacter pylori 26695, UniProt O25759 1-264, K199E;K230E); assay: fluorescence polarization
# T4 sequence: T1 sequence with K230E
# [5] = target: T5, HpSoj (Helicobacter pylori 26695, UniProt O25759 1-264); assay: fluorescence polarization
# T5 sequence: T1 sequence with E199K
# [6] = target: T5, HpSoj; assay: EMSA
Binder,Kd [1],Kd [2],binding result [3],Kd [4],Kd [5],binding result [6]
B1,215 ± 24 nM,187 ± 36 nM,no binding,308 ± 40 nM,122 ± 14 nM,
B2,,,,,,binds

# From PMC6393308
